{"source": "the supplement of paper PMC9112550", "about": "“Optimization of the antimicrobial peptide Bac7 by deep mutational scanning” (BMC Biology, 2022);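 also: peptides expressed intracellularly from a pBAD plasmid library in pooled LB shake-flask culture, induced with 0.3% L-arabinose, DNA abundance read by NGS, three biological replicates, DESeq2 with apeglm shrinkage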"}
{"tested_on": "Escherichia coli TOP10", "assay": "shrunken log2 fold change of peptide-encoding DNA abundance (4.5 h post-induction vs induction); higher = less antimicrobial activity (less host growth inhibition)", "conditions": "time post-induction: 4.5 h; library: site-saturation at positions 5, 18, 19, 20"}
{"sequence": "RRIRNRPPRLPRPRPRPYYEPRP", "shrunken log2 fold change": -0.793}
{"sequence": "RRIRVRPPRLPRPRPRPMLCPRP", "shrunken log2 fold change": 0.121}
{"sequence": "RRIRERPPRLPRPRPRPVFSPRP", "shrunken log2 fold change": -0.191}
{"sequence": "RRIRQRPPRLPRPRPRPTYEPRP", "shrunken log2 fold change": -0.0761}
{"sequence": "RRIRWRPPRLPRPRPRPNSTPRP", "shrunken log2 fold change": -0.326}
{"sequence": "RRIRKRPPRLPRPRPRPEEYPRP", "shrunken log2 fold change": 0.0303}
{"sequence": "RRIRHRPPRLPRPRPRPLQHPRP", "shrunken log2 fold change": 0.0675}
{"sequence": "RRIRGRPPRLPRPRPRPDMRPRP", "shrunken log2 fold change": 1.36}
{"sequence": "RRIRWRPPRLPRPRPRPHGAPRP", "shrunken log2 fold change": 0.0287}
{"sequence": "RRIRFRPPRLPRPRPRPLKKPRP", "shrunken log2 fold change": 0.251}
{"sequence": "RRIRTRPPRLPRPRPRPVNAPRP", "shrunken log2 fold change": -0.189}
{"sequence": "RRIRERPPRLPRPRPRPNTHPRP", "shrunken log2 fold change": -0.704}
{"sequence": "RRIRYRPPRLPRPRPRPWICPRP", "shrunken log2 fold change": -0.593}
{"sequence": "RRIRNRPPRLPRPRPRPRTCPRP", "shrunken log2 fold change": -0.257}
{"sequence": "RRIRMRPPRLPRPRPRPPKSPRP", "shrunken log2 fold change": 0.478}
{"sequence": "RRIRVRPPRLPRPRPRPYKKPRP", "shrunken log2 fold change": 0.0251}
{"sequence": "RRIRYRPPRLPRPRPRPYADPRP", "shrunken log2 fold change": -0.136}
{"sequence": "RRIRQRPPRLPRPRPRPFLIPRP", "shrunken log2 fold change": -1.81}
{"sequence": "RRIRLRPPRLPRPRPRPDKEPRP", "shrunken log2 fold change": 0.0143}
{"sequence": "RRIRWRPPRLPRPRPRPAIVPRP", "shrunken log2 fold change": 0.144}
{"sequence": "RRIRNRPPRLPRPRPRPFFQPRP", "shrunken log2 fold change": -0.427}
{"sequence": "RRIRKRPPRLPRPRPRPNYIPRP", "shrunken log2 fold change": -0.0745}
{"sequence": "RRIRVRPPRLPRPRPRPFVDPRP", "shrunken log2 fold change": -0.385}
{"sequence": "RRIRNRPPRLPRPRPRPKKTPRP", "shrunken log2 fold change": -0.197}
{"sequence": "RRIRKRPPRLPRPRPRPQTVPRP", "shrunken log2 fold change": 0.0918}
{"sequence": "RRIRFRPPRLPRPRPRPGHSPRP", "shrunken log2 fold change": -0.0168}
{"sequence": "RRIRWRPPRLPRPRPRPNPEPRP", "shrunken log2 fold change": -0.0123}
{"sequence": "RRIRRRPPRLPRPRPRPMMNPRP", "shrunken log2 fold change": 0.00643}
{"sequence": "RRIRYRPPRLPRPRPRPLAAPRP", "shrunken log2 fold change": 0.153}
{"sequence": "RRIRVRPPRLPRPRPRPMDKPRP", "shrunken log2 fold change": -0.278}
{"sequence": "RRIRERPPRLPRPRPRPQKGPRP", "shrunken log2 fold change": -0.213}
{"sequence": "RRIRCRPPRLPRPRPRPFQVPRP", "shrunken log2 fold change": -0.335}
{"sequence": "RRIRKRPPRLPRPRPRPQVHPRP", "shrunken log2 fold change": -0.161}
{"sequence": "RRIRKRPPRLPRPRPRPWCKPRP", "shrunken log2 fold change": -0.188}
{"sequence": "RRIRRRPPRLPRPRPRPSFAPRP", "shrunken log2 fold change": 0.492}
{"sequence": "RRIRQRPPRLPRPRPRPDCGPRP", "shrunken log2 fold change": 2.88}
{"sequence": "RRIRHRPPRLPRPRPRPIDLPRP", "shrunken log2 fold change": 0.036}
{"sequence": "RRIRLRPPRLPRPRPRPDRSPRP", "shrunken log2 fold change": -0.0286}
{"sequence": "RRIRQRPPRLPRPRPRPNSSPRP", "shrunken log2 fold change": -1.14}
{"sequence": "RRIRPRPPRLPRPRPRPQCIPRP", "shrunken log2 fold change": -0.182}
{"sequence": "RRIRNRPPRLPRPRPRPECDPRP", "shrunken log2 fold change": 0.203}
{"sequence": "RRIRYRPPRLPRPRPRPGSAPRP", "shrunken log2 fold change": -0.24}
{"sequence": "RRIRCRPPRLPRPRPRPYWDPRP", "shrunken log2 fold change": -1.1}
{"sequence": "RRIRRRPPRLPRPRPRPRPEPRP", "shrunken log2 fold change": 0.343}
{"sequence": "RRIRNRPPRLPRPRPRPNSIPRP", "shrunken log2 fold change": -0.728}
{"sequence": "RRIRRRPPRLPRPRPRPRKSPRP", "shrunken log2 fold change": 0.339}
{"sequence": "RRIRYRPPRLPRPRPRPTDEPRP", "shrunken log2 fold change": -0.00133}
{"sequence": "RRIRERPPRLPRPRPRPYQMPRP", "shrunken log2 fold change": -0.448}
{"sequence": "RRIRERPPRLPRPRPRPYGDPRP", "shrunken log2 fold change": -0.218}
{"sequence": "RRIRVRPPRLPRPRPRPRCLPRP", "shrunken log2 fold change": -0.16}
{"sequence": "RRIRRRPPRLPRPRPRPMSKPRP", "shrunken log2 fold change": 0.404}
{"sequence": "RRIRARPPRLPRPRPRPMLDPRP", "shrunken log2 fold change": 0.504}
{"sequence": "RRIRIRPPRLPRPRPRPWKRPRP", "shrunken log2 fold change": -0.0143}
{"sequence": "RRIRVRPPRLPRPRPRPFQCPRP", "shrunken log2 fold change": -0.0433}
{"sequence": "RRIRTRPPRLPRPRPRPQDMPRP", "shrunken log2 fold change": -0.48}
{"sequence": "RRIRQRPPRLPRPRPRPDHQPRP", "shrunken log2 fold change": -0.126}
{"sequence": "RRIRARPPRLPRPRPRPEEAPRP", "shrunken log2 fold change": 3.84}
{"sequence": "RRIRWRPPRLPRPRPRPEYFPRP", "shrunken log2 fold change": -0.0445}
{"sequence": "RRIRHRPPRLPRPRPRPHKEPRP", "shrunken log2 fold change": -0.00832}
{"sequence": "RRIRVRPPRLPRPRPRPQRTPRP", "shrunken log2 fold change": -0.0863}
